The record followed here is patent US20230272055A1 (Incyte, published 2023).

Numbering of substitutions follows the chain as printed.

T1: human Type 1 mutCALR on Ba/F3 cells expressing MPL and Type 1 mutCALR (human)
T1 chain: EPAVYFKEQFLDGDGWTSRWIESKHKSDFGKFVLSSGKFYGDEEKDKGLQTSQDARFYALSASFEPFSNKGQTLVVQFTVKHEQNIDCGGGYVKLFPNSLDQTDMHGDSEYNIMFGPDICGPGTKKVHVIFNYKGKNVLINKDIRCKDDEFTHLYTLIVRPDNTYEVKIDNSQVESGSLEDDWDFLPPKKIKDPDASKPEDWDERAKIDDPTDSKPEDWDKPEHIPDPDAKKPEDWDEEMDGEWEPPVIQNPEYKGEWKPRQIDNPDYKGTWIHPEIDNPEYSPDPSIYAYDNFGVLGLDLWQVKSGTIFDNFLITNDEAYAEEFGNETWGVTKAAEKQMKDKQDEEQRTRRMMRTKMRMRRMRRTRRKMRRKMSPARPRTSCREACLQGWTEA

T2: human mutCALR on BaF3 cells stably expressing human MPL and human mutCALR (MPL-mutCALR cells) (human)
T2 construct: also called mutant calreticulin
T2 chain: T1 chain

B1: anti-mutCALR antibody clone 9 (antibody, human IgG1, lambda, V domains shown)
VH: EVQLVQSGAEVKKPGASVKVSCKVSGYTLTELSMQWVRQAPGKGLEWMGGFDPDDGETMYAEKFQGRLTVTEDTSTDTVYMELRSLTSEDTALYFCATSPGYDFFDYWGQGTLVTVSS
VL: SYVLTQPPSVSVAPGQTARIPCGGNNIGSKSVHWYQQKPGQAPVLVVYDDRDRPSGIPERFSGSNSGNTATLTINRVEAGDEADYYCQVWDSSNDLLIFGGGTKLTVLG
notes: human IgG1
B2: anti-mutCALR antibody clone 19 (antibody, human IgG1, lambda, V domains shown)
VH: B1 VH with S75P
VL: B1 VL with P8L, P14L, P21T, N25S, S29D, K30I, S31R, R51S
B3: anti-mutCALR antibody clone 17 (antibody, human IgG1, lambda)
heavy: not shown
light: SYVLTQPPSVSVAPGQTARITCGGSDIGDEIVHWYQQKPGQAPVLVVYDDSDRPSGIPERFSGSNSGNTATLTISRAQAGDEADYYCQVWDSSSDHLIFGGGTKLTVLGQPKAAPSVTLFPPSSEELQANKATLVCLISDFYPGAVTVAWKADSSPVKAGVETTTPSKQSNNKYAASSYLSLTPEQWKSHRSYSCQVTHEGSTVEKTVAPTECS
notes: human IgG1
B4: anti-mutCALR antibody clone 29 (antibody, human IgG1, lambda, V domains shown)
VH: B1 VH
VL: B1 VL with Q16K, P21T, R51S, N75S, N94S, T103A
notes: human IgG1
B5: anti-mutCALR antibody clone 23 (antibody, human IgG1, lambda, V domains shown)
VH: B1 VH
VL: B1 VL with P21T, S29I, R51S
notes: human IgG1
B6: anti-mutCALR antibody clone 30 (antibody, human IgG1, lambda, V domains shown)
VH: B1 VH
VL: B1 VL with Q16K, R19T, P21T, S29T, R51S
notes: human IgG1
B7: anti-mutCALR antibody clone 21 (antibody, human IgG1, lambda, V domains shown)
VH: B1 VH with K23E
VL: B1 VL with I20V, P21S, H33N, Q36R, V47I, R51S, N75S
notes: human IgG1
B8: anti-mutCALR antibody clone 13 (antibody, human IgG1, lambda, V domains shown)
VH: B1 VH with E1Q
VL: not shown
notes: human IgG1
B9: anti-mutCALR antibody clone 22 (antibody, human IgG1, lambda, V domains shown)
VH: B1 VH
VL: B1 VL with Q16K, P21T, S31N, R51S
notes: human IgG1
B10: anti-mutCALR antibody clone 27 (antibody, human IgG1, lambda, V domains shown)
VH: B1 VH
VL: B1 VL with P21T, S29I
notes: human IgG1
B11: anti-mutCALR antibody clone 18 (antibody, human IgG1, lambda, V domains shown)
VH: B1 VH
VL: B1 VL with Q16K, P21T, R51S, S55L
notes: human IgG1
B12: anti-mutCALR antibody clone 16 (antibody, human IgG1, lambda, V domains shown)
VH: B1 VH
VL: B1 VL with Q16K, P21T, I27T, R51S
notes: human IgG1
B13: anti-mutCALR antibody clone 12 (antibody, human IgG1, lambda, V domains shown)
VH: B1 VH with D55G
VL: B1 VL with I20V, P21S, H33N, Q36R, V47I, R51S
notes: human IgG1
B14: anti-mutCALR antibody clone 20 (antibody, human IgG1, lambda, V domains shown)
VH: B1 VH
VL: B1 VL with Q16K, P21T, S31G, R51S
notes: human IgG1
B15: anti-mutCALR antibody clone 26 (antibody, human IgG1, lambda, V domains shown)
VH: B1 VH
VL: B1 VL with P21T, R51S, N75S, N94I, L96H, L105V
notes: human IgG1
B16: anti-mutCALR antibody clone 15 (antibody, human IgG1, lambda)
heavy: not shown
light: SYELTQPPSVSVAPGKTARITCGGDNIGSKSVHWYQQKPGQAPVLVVYDDSDRPSGIPERFSGSNSGNTATLTINRVEAGDEADYYCQVWDSSNDLLIFGGGTKLTVLGQPKAAPSVTLFPPSSEELQANKATLVCLISDFYPGAVTVAWKADSSPVKAGVETTTPSKQSNNKYAASSYLSLTPEQWKSHRSYSCQVTHEGSTVEKTVAPTECS
notes: human IgG1
B17: anti-mutCALR antibody clone 24 (antibody, human IgG1, lambda, V domains shown)
VH: B1 VH with F64L
VL: B1 VL with Q16K, P21T, R51S
notes: human IgG1
B18: anti-mutCALR antibody clone 28 (antibody, human IgG1, lambda, V domains shown)
VH: B1 VH
VL: B1 VL with V3E, P21T, R51S, N75S, S92A, S93D, N94S, L96Q
notes: human IgG1
B19: anti-mutCALR antibody clone 10 (antibody, human IgG1, lambda, V domains shown)
VH: B1 VH
VL: B1 VL with V3E, K30E, S31G, R51S, N75S
notes: human IgG1
B20: anti-mutCALR antibody clone 25 (antibody, human IgG1, lambda, V domains shown)
VH: B1 VH
VL: B1 VL with V3E, S11A, P21T, S29R, S31A, R51S
notes: human IgG1

The first test addresses T1, human Type 1 mutCALR on Ba/F3 cells …. Put plainly: cell-based or functional assay.
Take B1: the “IC50, inhibition of pSTAT5” value is 0.056 µg/mL.

Consider B2, for which the “IC50, inhibition of pSTAT5” value came out at 0.062 µg/mL.

B3: the “IC50, inhibition of pSTAT5” value was determined as 0.031 µg/mL.

Turning to B4, the “IC50, inhibition of pSTAT5” value is 0.037 µg/mL.

As for B5, the “IC50, inhibition of pSTAT5” value worked out at 0.03 µg/mL.

For B6, the “IC50, inhibition of pSTAT5” value worked out at 0.054 µg/mL.

Consider B7, for which the “IC50, inhibition of pSTAT5” value stood at 0.032 µg/mL.

For the molecule B8, the “IC50, inhibition of pSTAT5” value worked out at 0.091 µg/mL.

As for B9, the “IC50, inhibition of pSTAT5” value was 0.035 µg/mL.

Turning to B10, the “IC50, inhibition of pSTAT5” value was determined as 0.037 µg/mL.

Regarding B11, the “IC50, inhibition of pSTAT5” value is 0.036 µg/mL.

Take B12: the “IC50, inhibition of pSTAT5” value was found to be 0.028 µg/mL.

B13: the “IC50, inhibition of pSTAT5” value is 0.061 µg/mL.

B14: the “IC50, inhibition of pSTAT5” value was determined as 0.018 µg/mL.

As for B15, the “IC50, inhibition of pSTAT5” value stood at 0.125 µg/mL.

Turning to B16, the “IC50, inhibition of pSTAT5” value was found to be 0.041 µg/mL.

As for B17, the “IC50, inhibition of pSTAT5” value turned out to be 0.031 µg/mL.

As for B18, the “IC50, inhibition of pSTAT5” value is 0.193 µg/mL.

On to B19, for which the “IC50, inhibition of pSTAT5” value came out at 0.055 µg/mL.

On to B20, for which the “IC50, inhibition of pSTAT5” value worked out at 0.024 µg/mL.

Another test has as its target T2, human mutCALR on BaF3 cells stably …. Put plainly: flow cytometry, BaF3 MPL-mutCALR cells. On the procedure: On the day of the assay, cells were washed and resuspended in assay buffer. Approximately 200,000 cells/well were added to 96-well plates and stained with the indicated concentration of antibodies for 30 minutes on ice. Cells were then washed and stained with goat anti-human secondary conjugated to R-phycoerythrin (R-PE) (Jackson Immuno Research Laboratories) for 30 minutes on ice. The cells were then washed and analyzed by flow cytometry.
(Flow cytometry measures light scatter and fluorescence of single cells or particles in a stream.)
Take B1: the “MPL-mutCALR AUC” value stood at 75300.

As for B2, the “MPL-mutCALR AUC” value was found to be 91600.

On to B3, for which the “MPL-mutCALR AUC” value was found to be 72700.

With B4, the EC50 was found to be 3.19 µg/mL and the “MPL-mutCALR AUC” value came out at 77900.

In the case of B5, the “MPL-mutCALR AUC” value came to 65900.

As to B6, the “MPL-mutCALR AUC” value is 63800.

B7: the EC50 was 0.7 µg/mL and the “MPL-mutCALR AUC” value worked out at 70100.

Take B8: the EC50 came out at 0.04 µg/mL and the “MPL-mutCALR AUC” value is 57700.

For the molecule B9, the “MPL-mutCALR AUC” value worked out at 124000.

Consider B10, for which the “MPL-mutCALR AUC” value was found to be 55200.

For B11, the “MPL-mutCALR AUC” value was 91900.

On to B12, for which the EC50 was found to be 0.04 µg/mL and the “MPL-mutCALR AUC” value was found to be 63200.

On to B13, for which the EC50 was 0.02 µg/mL and the “MPL-mutCALR AUC” value was 61000.

As for B14, the “MPL-mutCALR AUC” value turned out to be 92700.

For B15, the EC50 was found to be 0.42 µg/mL and the “MPL-mutCALR AUC” value turned out to be 41500.

With B16, the “MPL-mutCALR AUC” value stood at 87600.

As to B17, the EC50 came to 29.3 µg/mL and the “MPL-mutCALR AUC” value was found to be 67800.

On to B18, for which a half-maximal effect (EC50) was put at 4.15 µg/mL and the “MPL-mutCALR AUC” value turned out to be 60400.

Take B19: the “MPL-mutCALR AUC” value came out at 72100.

On to B20, for which the concentration for a half-maximal effect (EC50) worked out at 77.3 µg/mL and the “MPL-mutCALR AUC” value worked out at 65200.

A word on the EC50: it is the concentration giving half of the maximal effect. A high value points to weaker potency.
